The results in this text go back to US20260098270, “MULTIVALENT TRIDENT […] FOR MOLECULAR RECOGNITION, METHODS OF MAKING AND USES […]” (MCMASTER UNIVERSITY, published 2026).

Series [1] concerns the target SARS-CoV-2 spike S1 subunit (SARS-CoV-2, UniProt P0DTC2 P0DTC2:14-685). Put plainly: filter.
A further series has as its target VEGF165 (UniProt P15692-4 P15692-4:27-191). The experiment in a line: filter. As to conditions: chain copies: 2 (stated dimeric).
A further series concerns the target SARS-CoV-1 spike protein (SARS-CoV-1, UniProt P59594 P59594:14-1195). The experiment in a line: ELONA. To be noted: tags: from Dr. Matthew Miller's lab, McMaster University; label: biotin.
Series [2] deals with Spike RBD of seasonal coronavirus 229E (Human coronavirus 229E, UniProt P15423 P15423:293-435). The experiment in a line: ELONA. As to conditions: tags: from Dr. Matthew Miller's lab, McMaster University.
A further series deals with T1, Amylase (UniProt P0DUB6 P0DUB6:16-511).
T1 sequence: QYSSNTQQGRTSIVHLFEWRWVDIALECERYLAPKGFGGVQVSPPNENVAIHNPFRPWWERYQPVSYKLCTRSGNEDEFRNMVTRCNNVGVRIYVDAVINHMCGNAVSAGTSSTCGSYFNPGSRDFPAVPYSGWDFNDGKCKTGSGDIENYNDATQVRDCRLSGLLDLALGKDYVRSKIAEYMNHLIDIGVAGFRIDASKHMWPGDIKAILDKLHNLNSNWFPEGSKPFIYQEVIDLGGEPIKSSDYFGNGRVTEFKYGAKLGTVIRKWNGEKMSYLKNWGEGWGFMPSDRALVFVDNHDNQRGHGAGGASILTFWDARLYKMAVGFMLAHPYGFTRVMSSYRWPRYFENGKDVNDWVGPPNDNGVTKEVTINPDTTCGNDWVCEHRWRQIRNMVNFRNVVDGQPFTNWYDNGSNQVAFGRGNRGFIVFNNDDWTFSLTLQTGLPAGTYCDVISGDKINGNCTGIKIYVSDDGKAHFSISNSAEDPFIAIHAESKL
The experiment in a line: ELONA. As to conditions: tags: Sigma-Aldrich A1031.

Series [3] concerns the target Spike RBD of seasonal coronavirus OC43 (Human coronavirus OC43, UniProt P36334 P36334:333-607). The experiment in a line: ELONA. As to conditions: tags: from Dr. Matthew Miller's lab, McMaster University.
In series [4] the target is T2, Bovine serum albumin (BSA) (Bos taurus, UniProt P02769 P02769:25-607). The experiment in a line: ELONA. As to conditions: tags: Sigma-Aldrich A7906.
For series [5], the target named is T2, Bovine serum albumin (BSA). The experiment in a line: filter; dot blot, no binding. To be noted: tags: Sigma-Aldrich A7906; label: 5'-32P.

The term Kd denotes a measure of binding affinity in units of concentration. Read a low Kd as higher affinity.

VEGF165, sequence (P15692 other isoform, or with tags, fused parts or gaps): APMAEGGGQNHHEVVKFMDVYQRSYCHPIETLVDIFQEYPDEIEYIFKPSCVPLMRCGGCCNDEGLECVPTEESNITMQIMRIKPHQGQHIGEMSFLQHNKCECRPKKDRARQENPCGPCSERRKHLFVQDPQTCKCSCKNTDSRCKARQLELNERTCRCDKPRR
T2 sequence (P02769 25-607, one chain of several): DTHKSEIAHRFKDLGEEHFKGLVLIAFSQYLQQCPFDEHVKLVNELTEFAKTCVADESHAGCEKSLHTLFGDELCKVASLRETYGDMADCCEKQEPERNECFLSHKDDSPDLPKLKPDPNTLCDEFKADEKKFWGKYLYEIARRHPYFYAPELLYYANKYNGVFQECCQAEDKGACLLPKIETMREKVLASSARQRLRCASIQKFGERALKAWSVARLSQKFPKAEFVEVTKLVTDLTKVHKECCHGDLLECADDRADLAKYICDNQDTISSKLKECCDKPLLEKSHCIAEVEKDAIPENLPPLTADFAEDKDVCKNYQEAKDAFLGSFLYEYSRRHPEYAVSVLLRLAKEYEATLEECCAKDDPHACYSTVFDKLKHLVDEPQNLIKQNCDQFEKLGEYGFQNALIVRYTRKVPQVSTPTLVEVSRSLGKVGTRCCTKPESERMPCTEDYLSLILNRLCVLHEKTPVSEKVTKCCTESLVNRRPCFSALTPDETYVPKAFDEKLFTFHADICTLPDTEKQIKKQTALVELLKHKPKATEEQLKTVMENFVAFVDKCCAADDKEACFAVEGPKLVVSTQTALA
Spike RBD of seasonal coronavirus 229E, sequence (P15423 293-435, one chain of several): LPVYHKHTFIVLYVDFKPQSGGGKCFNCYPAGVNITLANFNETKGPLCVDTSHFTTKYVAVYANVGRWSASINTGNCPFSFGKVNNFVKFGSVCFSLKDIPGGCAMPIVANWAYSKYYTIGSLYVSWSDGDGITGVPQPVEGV
Spike RBD of seasonal coronavirus OC43, sequence (P36334 333-607, one chain of several): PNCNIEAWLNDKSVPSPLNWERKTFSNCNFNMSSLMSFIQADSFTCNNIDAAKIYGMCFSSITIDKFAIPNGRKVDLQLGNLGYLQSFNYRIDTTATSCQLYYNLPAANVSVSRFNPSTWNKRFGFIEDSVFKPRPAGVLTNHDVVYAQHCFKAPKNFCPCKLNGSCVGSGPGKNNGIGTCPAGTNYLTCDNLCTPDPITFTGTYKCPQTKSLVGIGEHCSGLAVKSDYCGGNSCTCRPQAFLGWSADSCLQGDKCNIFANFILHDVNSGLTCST

B1: TMSA52T8 (ssDNA)
DNA: CGAAGCATCTCGTGTCACTCCGTAGGGTTTGGCTCCGGGCCTGGCGTCGTTTTTCTCTCGC
modifications: three identical arms joined by Trebler, root TTTTT-Biotin
In series [1], B1 registered a Kd of 0.21 nM.

B2: MSA52T8 (ssDNA)
DNA: CGAAGCATCTCGTGTCACTCCGTAGGGTTTGGCTCCGGGCCTGGCGTCG
With B2, the affinity in series [1], expressed as Kd, was 6.5 nM.

B3: Trimeric (trident) H1A (ssDNA)
DNA: GCCCGTCTTCCAGACAAGAGTGCAGGGCTTTTTCTCTCGC
modifications: three identical arms joined by Trebler, root TTTTT-Biotin
Regarding B3, in the series with VEGF165, binding was put at a Kd of 0.27 nM.

B4: TMSA52-B (ssDNA)
DNA: TTACGTCAAGGTGTCACTCCGTAGGGTTTGGCTCCGGGCCTGGCGTCGGTCGTCTCTCGCGAAGCATCTCTTTGGCGTGTTTTTTTTTTTTTTT
modifications: three identical arms joined by Trebler, root TTTTT-Biotin
As to B4, the binding result (in the series with SARS-CoV-1 spike protein; in series [2]; in the series with Amylase; in series [3]; in series [4]) was “no binding” throughout.

B5: H1A (ssDNA)
DNA: GCCCGTCTTCCAGACAAGAGTGCAGGGC
B5: binding in the series with VEGF165 was put at a Kd of 21.3 nM.

B6: Trimeric (trident) RHA06 (ssDNA)
DNA: GGGTTTGGGTTGGGTTGGGTTTTTGGGTTTGGGTTGGGTTGGGAAAAATTTTTCTCTCGC
modifications: three identical arms (SEQ 12) joined by Trebler, root TTTTT-Biotin
As for B6, the binding result in series [5] is given as “no binding”.
